Measured values taken from publication PMC11034791.

Molecular target: Neuropeptide Y (NPY) (UniProt P01303 29-64)
Assay: electrochemical impedance spectroscopy

B1: NPY aptamer (80-base ssDNA) (ssDNA)
DNA: AGCAGCACAGAGGTCAGATGCAAACCACAGCCTGAGTGGTTAGCGTATGTCATTTACGGACCTATGCGTGCTACCGTGAA
modifications: 5' disulfide C6 (reduced to thiol), immobilized on Au
B1: binds.
